Assay results reported in the supplement of paper PMC9170038.

Test system: MS2 coat protein
Assay: apparent KD of MS2 coat protein; designed switch direction (-1 OFF switch, 1 ON switch): -1; higher = weaker reporter binding
Procedure, shortened: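 Designed RNA switches with common flanks were transcribed on Illumina chips by stalled E. coli RNA polymerase and titrated with SNAP-549-labelled MS2 coat protein, from 0.7 or 1.5 nM doubling to 3 µM, in Tris-HCl pH 7.5 buffer with KCl, MgCl2, BSA, DTT, tRNA and Tween-20. Steps lasted 0.8–1.5 h (lowest) to 10–20 min (highest). Titrations ran without input, with 200 uM small-molecule ligand, or with an oligonucleotide input. Normalised cluster fluorescence was curve-fitted, and apparent KD is the per-design median over clusters.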

[1] = Eterna round: R95, input ligand: microRNA oligo, concentration not stated
[2] = Eterna round: R95, input ligand: FMN 200 uM
[3] = Eterna round: R95, input ligand: none
[4] = input ligand: microRNA oligo, concentration not stated

| Sequence | apparent KD of MS2 coat protein (input ligand: FMN 200 uM) | apparent KD of MS2 coat protein (input ligand: none) | apparent KD of MS2 coat protein [1] | apparent KD of MS2 coat protein [2] | apparent KD of MS2 coat protein [3] | apparent KD of MS2 coat protein [4] |
| --- | --- | --- | --- | --- | --- | --- |
| AGCGAGGUAGGAUAUACAUGAGGAUCACCCAUGUGCUUGCAUGGCGUGGAAUGUCGAGGUAGAAGGGCCAUGCC [EX3 #72] (Eterna round: R97, puzzle: Exclusion 3) | 33.2 nM | 27.2 nM |  |  |  |  |
| CUUUUGUGAGGAUAUCAGUAGUAAAAAAAUAAAAUUACUAUUGAGAAGGCACAUGAGGAUCACCCAUGUUCCUC [salish99_ex4_r3_029] (puzzle: Exclusion 4) |  |  | 36.4 nM |  |  |  |
| CACAAGCUUUUUUGUUGCUUUUUAGUUGGUGUAUGAUAAACAUGAGGAUCACCCAUGUAAUAGAUGCUCGAUCUUUU [JR_SV3TOV2_Sub083] (puzzle: Sensor v3, turn-off variant 2) |  |  | 21.7 nM | 24.5 nM | 27 nM |  |
| CUAGACGGAGGAUAUACGAGAUCGAAAGAUCGGCGAUCCCUACAUGAGGAUCACCCAUGUAGAAGGCUGUUUAG [Mod 19 - Jieux - Exclusion 2] (Eterna round: R97, puzzle: Exclusion 2) | 69.9 nM | 16.2 nM |  |  |  |  |
| ACCUUACUGGUCAGGAUAUACAGUCUUUGGUGUGUGUAGAAGGGACAUGAGGAUCACCCAUGUAGGUUGCAGUA [alecazam60] (Eterna round: R97, puzzle: Brourd's mod of Exclusion 4) | 77.6 nM | 67.7 nM |  |  |  |  |
| AGUACUAACACGAAAGUGUUAGUACAAUAAGCUUGUGAAACAUGAGGAUCACCCAUGUCCUCAUCAGCUCGUCUUAU [salish99_TOv2_r3_052] (puzzle: Sensor v3, turn-off variant 2) |  |  | 409 nM | 124 nM | 191 nM |  |
| CCUAAACAUGAGGAUCACCCAUGUGAGGAUAUGCACACCACAACAUGCGGUUGAGGGUGCAGAAGGCAUAUGAG [Eternabot (L1) Solution 60] (Eterna round: R97, puzzle: Exclusion 1) | 99.2 nM | 34.2 nM |  |  |  |  |
| UAUUUAGCAAGCAGAUCCCACAUGAGGAUCACCCAUGUUCUCUGAACGUACAGAAUUACUGUACGAGCUCGUCUUAU [Winner reversed engineered 30] (Eterna round: R97, puzzle: Sensor, turn-off variant 1) | 352 nM | 352 nM |  |  |  |  |
| ACAUGAGGAUCACCCAUGUCGAGUACAUGAGGAUCACCCAUGUAGGAUAUGGUUCGCUUUGCGUGCUAGAAGGAUAUGUGUUGA [salish99_ExNG3_r04_510] (Eterna round: R96, puzzle: Exclusion NG 3) | 321 nM | 226 nM |  |  |  | 148 nM |
| CCCUCACAUGAGGAUCACCCAUGUCAGGAUAUUCGGCGGUCAAUUGACCGCCUUAAAGGAAGAAGGGACGUAAA [Masore] (puzzle: Exclusion 1) |  |  | 11.8 nM |  |  |  |
| UCAAGCUUUAAGCGUGUGAACAUGAGGAUCACCCAUGUAUUUUAGGUAAUAAGUUCAAUUAUGUAUUCUCGUCUUAU [JR_SWV3TOV1_Sub095] (puzzle: Sensor v3, turn-off variant 1) |  |  | 37.4 nM | 42.4 nM | 45.6 nM |  |
| CUGAGGUAGCGGUCCUAUGACAUGAGGAUCACCCAUGUACCUUGCUUUGAGCUAUUUGCUCGUCUUAUGAUUCUCGG [Mat - Sensor v3 - turn-off var 1 - JL Mod - D40] (puzzle: Sensor v3, turn-off variant 1) |  |  | 355 nM | 457 nM | 545 nM |  |
| GCUGGACGAGGAUAUACAAUCGUGCUUCGGCACGUAAGGUCACAUGAGGAUCACCCAUGUAGAAGGUGUCCAGC [E2/2-B2] (Eterna round: R97, puzzle: Exclusion 2) | 54.8 nM | 18.3 nM |  |  |  |  |
| UAUUUACAUGAGGAUCACCCAUGUCAGGAUAUGCGUCUAUCGUCGAAAGACGAUAGCCGCAGAAGGGACAAUAU [LRO-Excl01-21 mod derived from EliFisker 4.24] (Eterna round: R97, puzzle: Exclusion 1) | 87.3 nM | 58.1 nM |  |  |  |  |
| ACAUGAGGAUCACCCAUGUGACCACGAUGGCUGAUGUAGACCUAGGAUAUGAGUGAAUAUCUAUCUCAGAAGGAGGUUGACUGG [Deportation 50 - Jieux - Exclusion NG 3] (Eterna round: R96, puzzle: Exclusion NG 3) | 46.7 nM | 61.2 nM |  |  |  | 52.1 nM |
| GGUACUAACACGAUAGUGUUAGUACUAUAAGCUUGUGUUACAUGAGGAUCACCCAUGUCCUCAUAAGCUCGUCUUGA [Mat - Sensor v3 - Turn-off var 2 - D91] (puzzle: Sensor v3, turn-off variant 2) |  |  | 640 nM | 38 nM | 36 nM |  |
